Assay results as given in publication PMC8139597.

Molecular target: GFP11(×7)-actin (actin fused to a seven-copy array of GFP11)
Test: split reporter

Row | Substance | fold brightness of the GFP channel versus GFP11(×1)-actin [fold]
1 | FluoSTEP-AKAR (R-G1–10–FluoSTEP-AKAR; mRuby2-FHA1-PKAsub-GFP1–10) | > 5
2 | FluoSTEP-ICUE (mRuby2-Epac1(149 to 881)-GFP1–10) | 3.6
